According to the DeepSol protein solubility set:

Assay: soluble on expression in E. coli; label from the status in PepcDB or PDB records

Sequence	soluble on expression in E. coli
LRVRKAIIPAAGLGTRFLPATKAQPKEMLPIVDKPTIQYIVEEAIKSGIEDIIIISGRSKRAIEDHFDKSYELEQELEKKGNHDLLKLVQDISNLANIHYIRQKEAKGLGHAIYCAKSFIGNEPFAVLLGDDIVDSEVPCIKQLMDVYDKYRTTVLGVQKVPEDQVSKYGIVGGEIVSDRVYKVKDLVEKPDTASAPSNIAILGRYIITPRIFDYLENAKPGKGGEIQLTDALRELMGEEEMYAYDFIGKRYDVGNKLGFLQATVEFALARDDLKEEFEAYLKEIICKL	soluble
MGSDKIHHHHHHMEKIIEINDSIIQISDLNDRIYIMKLGKDVGELIKHVDSVCNEKKLSKVFAKVSGNKKELFEKNGYICEGKLENYYSNDDAYFMSKFFEESRKISKFSKEAEDVLNYVKTVGVNPHTKIDEKFHLKIANETDAEKLSKHYSKVFKTYPFPIDDPNYILKTMQTNVKYFIIEDNGKIVAASSCEMDIKNKCVEMTDFAVLEEYQKLGLSKYLLYIMEKIMKDNGYRVFYTIARSISYGMNITFKKMGYMYSGTAVNNTNICGNFEDMNFWYKLSE	not soluble
VWPTAKQAASLIGLDPKLLVAQAALETGWGRFVTRDADGSSSNNLFNIKTGSHSEVESIQVKTTEYIADTPIKINASFRKYPSIEHSFHDYVSLIKGSERYQMALANAENPEIFVSELNKAGYATDPNYSNKILSIYHGDELNQAIQRCESFEQS	not soluble
TRSVKSCVGKEFCRFGTQYTTRLGIRLEKTFEYIDTPHKFKMGVSGCPRSCVESGVKDFGIISVENGFQIYIGGNGGTEVEKAEFLTTVETEDEVIKLCGALMQYYRETGIYAERTAPWLRRLGFENVKEVLLD	not soluble
MPEITLNCQKLPCPQPVLRCKALLDTEAPARCTVTVDNAPASENVARFLTSRGYDTSVHADPEGLWNIIAVRKDSAVAPSCDCEVMDARGIAAIAGTAEMPQKVTVFITSETLGSGDDVLGGKLMANFLATLPELGDELWRIVCVNGGVRLATREHPAVTHLNKLEAMGVDILVCGTCLDHFGLLSEKAVGQTTNMLDVVTSLQLATKVIRPLEHHHHHH	soluble
MGSDKIHHHHHHMQQPLAYRMRPRHLDEVVGQQHLVGPGKIIRRMVEAKMLSSMILYGPPGTGKTSIASAIAGSTNYAFRMLNAATDTKKDLQIVAEEAKMSGTVILLLDEIHRLDKTKQDFLLPHLENGRIIMIGATTENPYITINPAIRSRTQIFEVKPLTETDIQQAIQEALTDSTRGLGDYPVHLEEKALQHLTRATNGDLRSALNGLELAVKSTPKNEQGEIKITLPIIEECVQRKALTHVKDGDAHYDVISAFQKSIRGSDVDAALHYLGRLVEAGDLPIICRRLMVIAYEDIGLGNPAAAARTVTAVQAAEKLGFPEARIPLASVVIDLCLSPKSNSAVTAIDAALADIRQGSVGDVPDHLRDAHYAGAKELNRGIGYQYPHNFENGWVNQQYLPDKLKEARYYEPIDIGKYEQALHQQLKRIQEWKQKK	not soluble
MQSPPGKPEIHKCRSPDKETFTCWWNPGTDGGLPTNYSLTYSKEGEKTTYECPDYKTSGPNSCFFSKQYTSIWKIYIITVNATNQMGSSSSDPLYVDVTYIVEPEPPRNLTLEVKQLKDKKTYLWVKWSPPTITDVKTGWFTMEYEIRLKPEEAEEWEIHFTGHQTQFKVFDLYPGQKYLVQTRCKPDHGYWSRWSQESSVEMPNDFTLKDRSRSHHHHHH	soluble
MAQLTHINAAGEAHMVDVSAKAETVREARAEAFVTMRSETLAMIIDGRHHKGDVFATARIAGIQAAKRTWDLIPLCHPLMLSKVEVNLQAEPEHNRVRIETLCRLTGKTGVEMEALTAASVAALTIYDMCKAVQKDMVIGPVRLLAKSGGKSGDFKVEADD	soluble
MQPPPRKVKPAQEVKLRFLEQLSILQTWQQREADLLEDIRSYSKQRAAIEREYGQALQKLAGPFLKREGHRSGEMDSRGRTVFGAWRCLLDATVAGGQTRLQASDRYRDLAGGTGRSAKEQVLRKGTENLQRAQAEVLQSVRELSRSRKLYGQRERVWALAQEKAADVQARLNRSDHGIFHSRTSLQKLSTKLSAQSAQYSQQLQAARNEYLLNLVATNAHLDHYYQEELPALLKALVSELSEHLRDPLTSLSHTELEAAEVILEHAHRGEQTTSQVSWEQDLKLFLQEPGVFSPTPPQQFQPAGTDQVCVLEWGAEGVAGKSGLEKEVQRLTSRAARDYKIQNHGHRVLQRLEQRRQQASEREAPSIEQRLQEVRESIRRAQVSQVKGAARLALLQGAGLDVERWLKPAMTQAQDEVEQERRLSEARLSQRDLSPTAEDAELSDFEECEETGELFEEPAPQALATRALPCPAHVVFRYQAGREDELTITEGEWLEVIEEGDADEWVKARNQHGEVGFVPERYLNFPDLSLPESSQDSDNPCGAEPTAFLAQALYSYTGQSAEELSFPEGALIRLLPRAQDGVDDGFWRGEFGGRVGVFPSLLVEELLGPPGPPELSDPEQMLPSPSPPSFSPPAPTSVLDGPPAPVLPGDKALDFPGFLDMMAPRLRPMRPPPPPPAKAPDPGHPDPLT	soluble
MSLAQEIALTPQPAHLTVKDGRFEFGNQLKAKVTPYQGDSIRMVFESFKKELQEATGIKVSSTQKEAKARIILDLNPQLPAEAYKLNVSKKQVRIEASRPAGFYYALQTLKQLMPRNVMAGVATSDHSQWSLPSVEIEDAPRFEWRGFMLDEGRHFFGKDEIKRVIDMMAIYKMNRFHWHLTEDQGWRIEIKKYPKLTETGAWRNSKVLAYGDVKPDGERYGGFYTQKDIKEIVAYAKKKFIEIIPEIDIPGHSQAAVAAYPEFLACDPRDKHEVWLQQGISTDVINVANPKAMQFAKEVIDELTELFPFNYIHLGGDECPTRKWQKNDECKKLLSEIGSSNFRDLQIYFYKQLKDYIATKPADQQRQLIFWNEVLHGNTSILGNDITIMAWIGANAAAKQAAKQGMNTILSPQIPYYINRKQSKLPTEPMSQGHGTETVEAVYNYQPLKDVDAALQPYYKGVQANFWTEWVTEPSVLEYLMLPRLAAVAEAGWTPQEKRNYEDFKERIRKDAELYDLKGWNYGKHIMKEGHHHHHH	soluble
MLSMCNKYPDFDDEERVRRVDDDFRDVITVFDAPFEGKSPSPAVIVFDELVDSDGSSKYLNFKMEQSYEKVDEIPEKIDAERIRYAIHLGSHSQKNVLQIFQSAYSDGYTEEDKNGKVPVGGKVKCAETETGFRTKINCENVVTAVNEYMDSNREKFGELRIETLNKAERNLDGYIYFSFLKQKPCRNLFIRIPPLE	not soluble
MAHHHHHHMTHYSRKPQVSSKSAKAKVSDLRCHYKNTFETANVINGMPLRKAQQLYRQVLAKTRCIPFKRYNGKIGRTAQAKEWGQTKGRWPRKSVVAMMSLLKNAEANAIEKGLDPNQMVIKHVQVDQAARMRRRTYRAHGRITPYMCSPCHVQLFMSEKKERVPAPKSAPKK	not soluble
MKFNCPLIVVNDINISRKFYEEVLCQKIKYDFGENVVYEGDFSLQLKSHFANMIDIDEKSIKFQSNGFELYFEEDNIEAFLNKLKQNKGINYIHSLLEHPWGQRVIRFYDPDMHIIEVGESMEGVIKRFFNEGMSIDEITKRTQHPLEFVKRVLHYKLTLEHHHHHH	soluble
MSLAQISKYKRVVLKLSGEALAGEKGFGINPVIIKSVAEQVAEVAKMDCEIAVIVGGGNIWRGKTGSDLGMDRGTADYMGMLATVMNALALQDSLEQLDCDTRVLTSIEMKQVAEPYIRRRAIRHLEKKRVVIFAAGIGNPYFSTDTTAALRAAEVEADVILMGKNNVDGVYSADPKVNKDAVKYEHLTHIQMLQEGLQVMDSTASSFCMDNNIPLTVFSIMEEGNIKRAVMGEKIGTLITKEGHHHHHH	soluble
MGSSHHHHHHSSGLVPRGSHMLPKPDQINQIIVLLNIYHGKKKPSEIAREMDITLQGVIYHMKNLRRDGLIDEENRITKKGFDFLYRQLSDMREFITSNILDLDSLMVWEAIAAEDITAGSTVHLRMKGGYLYAFLSGGGATGRAVNDSQAGGLVGITNLSGLIDVNFGKLSIIVIPDSIDGGISERLKKAAADLSPALFAAMGEAGYVALKNIGIEPDIEYSALQAAFEASVRGQNVVLVTSRRRLHYSMAEIPQLENRYNPVKANITDLS	soluble
MCDIGNLTQYRQAQEDILRGRVKVRVVGQDKGGGVVMGEGVEIAPGARIEGPVLIGGACHIATGAVVGPFTVLGPYTRVEEGATVRRSVLWDNVYTGEGANVRGLEHHHHHH	not soluble
MKATVSTIDNRGNLGKVLKDVTSKDSIKGYTVAAATAGVAQGLNYNPSAMGLDAKSLQTVAVKVTADALIKTAVYGGSFKDNLASAAAGTAASIGGAYGAGKIGDLGLTEGGLAKIALHAGLGGLLSEAMGGDFRTGAIAGGANELLVGVLGDKLEHHHHHH	not soluble
MSLSSVNCIEQTTEWTACSKSCGMGFSTRVTNRNRQCEMLKQTRLCMVRPCEQEPEQPTDKKGKKCLRTKKSLKAIHLQFKNCTSLHTYKPRFCGVCSDGRCCTPHNTKTIQAEFQCSPGQIVKKPVMVIGTCTCHTNCPKNNEAFLQELELKTTRGKMEGHHHHHH	not soluble
MAHHHHHHMSCRRFHKVLQANEEENEHAREAFLASWRSEYQQFLQSKLAALVWHVEHHCRSHVTPQTATSMACGEVPRMKVATTAPNSTTTASTNSNSAMMAEDAEQHDACNVLAHKQNRRTTLPSHFFLEQTPTSMPFYPREFIVEKEAQMFRQTNSPFTVGETPHGSQHSRTEINASTATVVPLPSVHKKETADRNSEKDDDRTAILAVSPSPRQISMHSPSQIEDDGSLDASLSPAATVAVTNVLTRTPGPAVQLQKMLPTEEVSKANLRKTIARLYSESVDTRSSWSDTWSQKKQRAASLLPPPSSASHMMHLKTMHVSHGTPCENMEASRNDMLSKKQLICELRRLYGLEDER	soluble
MGSDKIHHHHHHMIQIGKRYSLEVVKQVNFGVYLNAQELGQVLLPNKFVPTGCNVGDMVDVFLYLDSEDIVIATTQKSLAQVGEYAYLKVIATGPFGAFLDWGLDKDLLLPFGEQHKPAEEGHSYLVYVHANHADERIMASSKLDKFVDKTEAHYTEGEQVNLIIGGTTELGYKAIINNLHWGVIYANEVFQKLRFGQKVTGYIKTMRSDGKIDLVLQKGDKDELDKNARLIINKLRSANGFLPLHDKTDADVIYDKLGMSKKAFKKSIGGLFKAGEITIESEGIRLTV	not soluble
MGSDKIHHHHHHMDEVESNFLTVGTLNRYLSAKFVHDPYLKQVSLTGEIFGYKISSGSAYFELRDEDESSIRAYVSPTILRGFPFDFKSGDKVNLVADVRLYGKRAYASLFIFSMQPAGLGELYLKLAELKNKLTKEGIFNRPTKELNYFPKKIAVITSKTGAVIHDISSTIGHRNPNLKIELFESSVQGDSAVKELVSAVKKADQSDADAIIIARGGGSTLDLWPFNDEQLVRLLSSLSKPVISSIGHETDVTLTDLAADYRVETPTAAANKVTPAILDYRNNLDQLTALMSVDIKQLLQKNLNRFEYLANSPALKSFDQVFFNHEQKLQNLNLRLANSFAGEFQKNIQQFANLTAKLDALSPLKVLDRGFSLTFKGDRLIKNAQQLKEKDHIKILFAKGSALAEIKEISDDRRI	not soluble
MGSEEYFKKGAIKVEIKSGALLISPSEFKERYLPTLQDMPVLAFVRNIEAPKSWYSYLISNIEDQKSSIFPTNLPRILEISRRYFSSVKNGIVVIDALEYLTIYNGFEAIAKFLATLRDFAILDNGTVIIITEKKAWKDREWALLTSLLGKLEHHHHHH	soluble
MSPKSVVITGANRGIGLGLVQEFVKDKNIRHIIATARDVEKATDLKAISDPRVTALQLEVTCDKSMDTFVSKVEEIVGSDGLNLLVNNAGNAVDYPCKAKPNRALFAEQLNVNTTSVVILTQKLMPLLIKASSKVSGDQLSASRAAVVTISSGLASMTDFATGGHAPNAFAYRISKAAINMFGRALANDMKDDHILVASIGPGWVKTDMGGEKALLTVEQSTAELVASFNKLNNSHNGGFFQKDLTPYPF	not soluble
